Laboratory results reported in IntAct's records for PubMed 11264384.

Target: nef_hv1a2 nef (UniProt P03407)
Sequence (P03407 whole entry): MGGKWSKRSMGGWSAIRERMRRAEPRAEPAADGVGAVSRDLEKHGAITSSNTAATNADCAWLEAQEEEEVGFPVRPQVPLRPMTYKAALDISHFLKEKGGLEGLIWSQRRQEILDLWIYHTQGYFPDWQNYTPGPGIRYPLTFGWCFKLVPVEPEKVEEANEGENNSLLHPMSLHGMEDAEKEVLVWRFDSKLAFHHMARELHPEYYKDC

Q: Which “effect of a mutation on the interaction” value does the source give for “T-cell surface glycoprotein CD4 (Homo sapiens) (from UniProt P01730) L438A;L439A” here?
A: The value was “disrupting interaction strength”.
